“Also recorded” adds a separate entry of the source.
Key:
[1] = system: human APP co-expressed in HEK 293T cells; test: α-CTF produced by APP co-expressed in HEK 293T cells (Western blot); format: cell-based; conditions: for α-CTF produced by co-expressed APP: Western blot
Protocol: • a) A plasmid expressing the target protein in mammalian cells was constructed, and the protein expression promoter is CAG. • b) The target protein was expressed in HEK 293T cell line. Cells were subcultured one day before transfection, and transfection was performed when the degree of cell adhesion reached 70%-80%. The transfection reagent was lipofectamine2000 (ThermoFisher). • c) 4-6 hours post transfection, the medium were replaced with fresh cell culture medium. • d) 36-48 hours post transfection, the cells were lysed (10% 1M tris-HCl (pH=6.8), 4% SDS, 20% glycerol, 0.01% bromophenol blue), and the protein samples were collected and used for Western blot or stored in a −80° C. freezer. • e) Polyacrylamide gel electrophoresis. Before protein loading, the protein was boiled at 98° C. for 10 min, and then centrifuged at 12000 rpm for 10 min. Electrophoresis: 80V for the upper stacking gel; 120V for the lower separating gel. • f) Protein transfer. The filter paper was soaked in the electrophoresis solution before use, and the PVDF membrane was put in methanol for 10s to activate, and the gel after electrophoresis was taken out from the electrophoresis tank, put in the order of filter paper—PVD membrane—gel-filter paper from bottom to top, and they were put into the transfer instrument, with transferring in constant current at 0.1 A for 70 min. • g) Blocking and antibody incubation: the transferred PVDF membrane was placed in 5% BSA/TBST blocking solution, and blocked on a shaker at room temperature for 1 hour. The primary antibody was used to incubate at 4° C. overnight on a shaker (12-16 h); 1×TBST was used to wash three times, once every 10 minutes; the secondary antibody was used to incubate, shaked at room temperature for 1-2 h; 1×TBST was used to wash three times, once every 10 minutes. • h) Imaging by development: development was performed with ECL chemiluminescence hypersensitive chromogenic reagent.
Plasmids were transfected in HEK 293T or N2A cells for 36-48 hours and then lysed in cell lysis buffer [10% 1M tris-HCl (pH=6.8), 4% SDS, 20% glycerol, 0.01% bromophenol blue]. Lysates were shaken at room temperature for 10 min, then boiled for 10 min, and centrifuged at 12,000×g for 10 min. Proteins were run on 8% or 12% Tris-glycine SDS-PAGE and transferred to PVDF membranes (Life Technologies). Samples were incubated overnight at 4° C. with primary antibody diluted in 5% BSA buffer (in 1×TBST). After washing 3 times with 1×TBST, they were incubated with secondary antibody diluted in 5% BSA buffer (in 1×TBST) for 2 hours at room temperature. Finally, after washing 3 times with 1×TBST, the signal was detected by ECL Western blotting substrate (Solarbio, PE0010).
Data were analyzed by GraphPad Prism software (v6) using unpaired, paired, or one-sample t-tests. Aβ40 and Aβ42 levels were normalized to the corresponding GFP controls. α-CTF levels were normalized to FL-APP and corresponding GFP controls. All data are represented as mean±SEM. Statistical significance was defined as p<0.05. One, two, three and four stars (*) in the graph indicate p-values <0.05, <0.01, <0.001 and <0.0001, respectively.

5×FAD mice = test: Distribution of neuronally expressed ApoE around amyloid plaques in 5×FAD mice (immunofluorescence); format: in vivo, mouse
Protocol: Mice were anesthetized with isoflurane and perfused with 4% PFA. Dissected mouse brains were fixed overnight in 4% PFA and cryoprotected overnight in 30% sucrose. A cryostat (Leica CM3050S) was used to obtain frozen brain slices ([…]) from fixed and cryoprotected mouse brains. Floating slices were washed 3 times with 1×PBS and then permeabilized with 0.5% Triton-X in 1×PBS for 30 minutes. After blocking with 5% BSA in 1×PBS at room temperature for 1 h, the slices were incubated overnight at 4° C. in 5% BSA (in 1×PBS) buffer comprising the primary antibody. Slices were washed 3 times with 1×PBS and incubated with secondary antibody diluted in 5% BSA (1×PBS) buffer for 1 hour at room temperature. Samples were then washed 3 times with 1×PBS and mounted with Prolong Gold Antifade Mountant (Life Technology).
After being deeply anesthetized with isoflurane, mice (5 weeks old) were placed in a stereotaxic apparatus (RWD Instruments). The zero point (x, y, z, 0, 0, 0) is Bregma. Lentivirus (lentivirus-GFP, lentivirus-ApoE and lentivirus-ApoE-IRES-GFP) and AAV (AAV2/9-hSyn-EGFP-WPRE-pA and AAV2/9-hSyn-ApoECT; purchased from Shanghai Taitool Bioscience Co. Ltd.) were injected into the cortex (x, y, z, +/−1.6, 0, −1) or hippocampus (x, y, z, +/−1.5, −2, −1.5), injected 1 ul on each injection site. The mice were then returned to their cages for rehabilitation after surgery.

B1: ApoE CT: C-terminal fragment of ApoE, positions 216-299 of SEQ ID NO: 12; SEQ ID NO: 33 (protein)
chain: ARMEEMGSRTRDRLDEVKEQVAEVRAKLEEQAQQIRLQAEAFQARLKSWFEPLVEDMQRQWAGLVEKVQAAVGTSAAPVPSDNH
level of α-CTF compared with ApoE2 [1]: significantly increases the level of α-CTF | increase of α-CTF in the presence of GI254023X ([1]; 1 μM ADAM10 inhibitor GI254023X): approximately 4 fold | α-CTF in the presence of PF03084014 ([1]; 1 μM γ-secretase inhibitor PF03084014): failed to further increase α-CTF | α-CTF when β-secretase inhibited by AZD3839 ([1]; 5 μM AZD3839): still increases α-CTF | α-CTF produced by APP co-expressed with PS1 ([1]; APP and PS1 co-expressed, PF03084014 at 1 μM): significantly increases α-CTF; also recorded: can increase the production of α-CTF | γ-cleavage of APP (α-CTF) when co-expressed with γ-secretase ([1]; APP, γ-secretase and ApoE CT co-expressed): still inhibited γ-cleavage of APP | α-CTF produced by co-expressed APP ([1]; vs GFP control): significantly increased α-CTF; also recorded: increased the α-CTF | α-CTF produced by co-expressed APP ([1]; vs GFP control, listed as human ApoE CT): also increase α-CTF | increase in α-CTF levels ([1]; vs GFP control): more than 6 fold | α-CTF level ([1]; vs GFP control): more than 5 times the original level | migration to and accumulation around amyloid plaques (5×FAD mice; AAV expression in cortex, DG and CA3 neurons): migrated to the subiculum and accumulated in amyloid plaques | accumulation around amyloid plaques (5×FAD mice; lentiviral vectors): a similar distribution pattern was detected around amyloid plaques

Reference: patent publication US20250108100A1, “C-TERMINAL FRAGMENT OF APOLIPOPROTEIN E AND APPLICATION THEREOF IN INHIBITING y-SECRETASE ACTIVITY” (SYNPHATEC (SHANGHAI) BIOPHARMACEUTICAL TECHNOLOGY CO., LTD., priority 2022, published 2025)
